According to the supplement of paper PMC5998384:

How the values were obtained:
HeLa Kyoto [1] = experiment: solubility change mitosis vs G1/S (difference of NP-40 vs SDS log2 ratios) (log2 ratio difference); higher = more soluble in mitosis
HeLa Kyoto [2] = experiment: solubility in G1/S (NP-40 vs SDS abundance) (log2 ratio); higher = more soluble; conditions: cell cycle stage: G1/S
HeLa Kyoto [3] = experiment: thermal stability score vs G1/S (z-score of summed log2 fold changes over temperatures); higher = more thermally stable than in G1/S
HeLa Kyoto [4] = experiment: melting temperature (median over replicates), in situ; higher = more thermally stable
[5] = cell cycle stage: early G1 (4.5 h after nocodazole release)
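Throughout, for melting temperature (median over replicates), in situ: HeLa Kyoto cells synchronized by double thymidine or nocodazole block, proteins quantified by TMT10plex mass spectrometry, three independent biological replicates.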
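Throughout, for solubility change mitosis vs G1/S (difference of NP-40 vs SDS log2 ratios): synchronized HeLa Kyoto cells (double thymidine block for G1/S, nocodazole release for mitosis), protein amounts in NP-40 versus SDS lysates quantified by mass spectrometry, three biological replicates.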
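Throughout, for solubility in G1/S (NP-40 vs SDS abundance): HeLa Kyoto cells arrested at G1/S by double thymidine block, proteins quantified by TMT10plex mass spectrometry in mild NP-40 versus SDS extracts, three biological replicates.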
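Throughout, for thermal stability score vs G1/S (z-score of summed log2 fold changes over temperatures): synchronized HeLa Kyoto cells, proteins quantified by TMT10plex mass spectrometry, three biological replicates, mitosis taken 0.5 h after nocodazole release, G1/S directly after double thymidine block.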

Chain of PDCD10 (chain, as listed by the source): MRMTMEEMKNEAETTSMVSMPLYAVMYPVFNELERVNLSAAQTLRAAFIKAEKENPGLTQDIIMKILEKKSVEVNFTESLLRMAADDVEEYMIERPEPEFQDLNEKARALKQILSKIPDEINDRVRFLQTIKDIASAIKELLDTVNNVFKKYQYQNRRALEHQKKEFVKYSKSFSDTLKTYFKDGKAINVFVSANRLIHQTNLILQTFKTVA

Substance | solubility change mitosis (log2) (HeLa Kyoto [1]) | solubility in G1/S (log2) (HeLa Kyoto [2]) | thermal stability score (HeLa Kyoto [3]; [5]) | thermal stability score (HeLa Kyoto [3]; cell cycle stage: mitosis) | melting temperature (HeLa Kyoto [4]; cell cycle stage: G1/S) [°C] | melting temperature (HeLa Kyoto [4]; cell cycle stage: mitosis) [°C]
MVLNSLDKMIQLQKNTANIRNICVLAHVDHGKTTLADCLISSNGIISSRLAGKLRYMDSREDEQIRGITMKSSAISLHYATGNEEYLINLIDSPGHVDFSSEVSTAVRICDGCIIVVDAVEGVCPQTQAVLRQAWLENIRPVLVINKIDRLIVELKFTPQEAYSHLKNILEQINALTGTLFTSKVLEERAERETESQVNPNSEQGEQVYDWSTGLEDTDDSHLYFSPEQGNVVFTSAIDGWGFGIEHFARIYSQKIGIKKEVLMKTLWGDYYINMKAKKIMKGDQAKGKKPLFVQLILENIWSLYDAVLKKDKDKIDKIVTSLGLKIGAREARHSDPKVQINAICSQWLPISHAVLAMVCQKLPSPLDITAERVERLMCTGSQTFDSFPPETQALKAAFMKCGSEDTAPVIIFVSKMFAVDAKALPQNKPRPLTQEEIAQRRERARQRHAEKLAAAQGQAPLEPTQDGSAIETCPKGEEPRGDEQQVESMTPKPVLQEENNQESFIAFARVFSGVARRGKKIFVLGPKYSPLEFLRRVPLGFSAPPDGLPQVPHMAYCALENLYLLMGRELEYLEEVPPGNVLGIGGLQDFVLKSATLCSLPSCPPFIPLNFEATPIVRVAVEPKHPSEMPQLVKGMKLLNQADPCVQILIQETGEHVLVTAGEVHLQRCLDDLKERFAKIHISVSEPIIPFRETITKPPKVDMVNEEIGKQQKVAVIHQMKEDQSKIPEGIQVDSDGLITITTPNKLATLSVRAMPLPEEVTQILEENSDLIRSMEQLTSSLNEGENTHMIHQKTQEKIWEFKGKLEQHLTGRRWRNIVDQIWSFGPRKCGPNILVNKSEDFQNSVWTGPADKASKEASRYRDLGNSIVSGFQLATLSGPMCEEPLMGVCFVLEKWDLSKFEEQGASDLAKEGQEENETCSGGNENQELQDGCSEAFEKRTSQKGESPLTDCYGPFSGQLIATMKEACRYALQVKPQRLMAAMYTCDIMATGDVLGRVYAVLSKREGRVLQEEMKEGTDMFIIKAVLPVAESFGFADEIRKRTSGLASPQLVFSHWEIIPSDPFWVPTTEEEYLHFGEKADSENQARKYMNAVRKRKGLYVEEKIVEHAEKQRTLSKNK [EFTUD1] | -0.154 | -0.156 | 0.0185 | -0.212 | 50.3 | 50
MFKNTFQSGFLSILYSIGSKPLQIWDKKVRNGHIKRITDNDIQSLVLEIEGTNVSTTYITCPADPKKTLGIKLPFLVMIIKNLKKYFTFEVQVLDDKNVRRRFRASNYQSTTRVKPFICTMPMRLDDGWNQIQFNLLDFTRRAYGTNYIETLRVQIHANCRIRRVYFSDRLYSEDELPAEFKLYLPVQNKAKQ [CFAP20] | -0.00426 | -0.154 | -0.133 | 0.199 | 50.9 | 51
MEEKLKKTKIIFVVGGPGSGKGTQCEKIVQKYGYTHLSTGDLLRSEVSSGSARGKKLSEIMEKGQLVPLETVLDMLRDAMVAKVNTSKGFLIDGYPREVQQGEEFERRIGQPTLLLYVDAGPETMTQRLLKRGETSGRVDDNEETIKKRLETYYKATEPVIAFYEKRGIVRKVNAEGSVDSVFSQVCTHLDALK [AK1] | -0.0547 | 0.524 | 1.73 | 1.88 | 50.4 | 51
MFLYNLTLQRATGISFAIHGNFSGTKQQEIVVSRGKILELLRPDPNTGKVHTLLTVEVFGVIRSLMAFRLTGGTKDYIVVGSDSGRIVILEYQPSKNMFEKIHQETFGKSGCRRIVPGQFLAVDPKGRAVMISAIEKQKLVYILNRDAAARLTISSPLEAHKANTLVYHVVGVDVGFENPMFACLEMDYEEADNDPTGEAAANTQQTLTFYELDLGLNHVVRKYSEPLEEHGNFLITVPGGSDGPSGVLICSENYITYKNFGDQPDIRCPIPRRRNDLDDPERGMIFVCSATHKTKSMFFFLAQTEQGDIFKITLETDEDMVTEIRLKYFDTVPVAAAMCVLKTGFLFVASEFGNHYLYQIAHLGDDDEEPEFSSAMPLEEGDTFFFQPRPLKNLVLVDELDSLSPILFCQIADLANEDTPQLYVACGRGPRSSLRVLRHGLEVSEMAVSELPGNPNAVWTVRRHIEDEFDAYIIVSFVNATLVLSIGETVEEVTDSGFLGTTPTLSCSLLGDDALVQVYPDGIRHIRADKRVNEWKTPGKKTIVKCAVNQRQVVIALTGGELVYFEMDPSGQLNEYTERKEMSADVVCMSLANVPPGEQRSRFLAVGLVDNTVRIISLDPSDCLQPLSMQALPAQPESLCIVEMGGTEKQDELGERGSIGFLYLNIGLQNGVLLRTVLDPVTGDLSDTRTRYLGSRPVKLFRVRMQGQEAVLAMSSRSWLSYSYQSRFHLTPLSYETLEFASGFASEQCPEGIVAISTNTLRILALEKLGAVFNQVAFPLQYTPRKFVIHPESNNLIIIETDHNAYTEATKAQRKQQMAEEMVEAAGEDERELAAEMAAAFLNENLPESIFGAPKAGNGQWASVIRVMNPIQGNTLDLVQLEQNEAAFSVAVCRFSNTGEDWYVLVGVAKDLILNPRSVAGGFVYTYKLVNNGEKLEFLHKTPVEEVPAAIAPFQGRVLIGVGKLLRVYDLGKKKLLRKCENKHIANYISGIQTIGHRVIVSDVQESFIWVRYKRNENQLIIFADDTYPRWVTTASLLDYDTVAGADKFGNICVVRLPPNTNDEVDEDPTGNKALWDRGLLNGASQKAEVIMNYHVGETVLSLQKTTLIPGGSESLVYTTLSGGIGILVPFTSHEDHDFFQHVEMHLRSEHPPLCGRDHLSFRSYYFPVKNVIDGDLCEQFNSMEPNKQKNVSEELDRTPPEVSKKLEDIRTRYAF [SF3B3] | 0.0933 | -0.389 | -1 | -1.81 | 52.4 | 51.6
MSPKRIAKRRSPPADAIPKSKKVKVSHRSHSTEPGLVLTLGQGDVGQLGLGENVMERKKPALVSIPEDVVQAEAGGMHTVCLSKSGQVYSFGCNDEGALGRDTSVEGSEMVPGKVELQEKVVQVSAGDSHTAALTDDGRVFLWGSFRDNNGVIGLLEPMKKSMVPVQVQLDVPVVKVASGNDHLVMLTADGDLYTLGCGEQGQLGRVPELFANRGGRQGLERLLVPKCVMLKSRGSRGHVRFQDAFCGAYFTFAISHEGHVYGFGLSNYHQLGTPGTESCFIPQNLTSFKNSTKSWVGFSGGQHHTVCMDSEGKAYSLGRAEYGRLGLGEGAEEKSIPTLISRLPAVSSVACGASVGYAVTKDGRVFAWGMGTNYQLGTGQDEDAWSPVEMMGKQLENRVVLSVSSGGQHTVLLVKDKEQS [RCC1] | 0.0534 | -0.0854 | 1.88 | 3.04 | 48 | 49.1
PDCD10 | -0.0258 | 0.326 | 1.11 | 1.24 | 49.2 | 50.7
MPEDQAGAAMEEASPYSLLDICLNFLTTHLEKFCSARQDGTLCLQEPGVFPQEVADRLLRTMAFHGLLNDGTVGIFRGNQMRLKRACIRKAKISAVAFRKAFCHHKLVELDATGVNADITITDIISGLGSNKWIQQNLQCLVLNSLTLSLEDPYERCFSRLSGLRALSITNVLFYNEDLAEVASLPRLESLDISNTSITDITALLACKDRLKSLTMHHLKCLKMTTTQILDVVRELKHLNHLDISDDKQFTSDIALRLLEQKDILPNLVSLDVSGRKHVTDKAVEAFIQQRPSMQFVGLLATDAGYSEFLTGEGHLKVSGEANETQIAEALKRYSERAFFVREALFHLFSLTHVMEKTKPEILKLVVTGMRNHPMNLPVQLAASACVFNLTKQDLAAGMPVRLLADVTHLLLKAMEHFPNHQQLQKNCLLSLCSDRILQDVPFNRFEAAKLVMQWLCNHEDQNMQRMAVAIISILAAKLSTEQTAQLGTELFIVRQLLQIVKQKTNQNSVDTTLKFTLSALWNLTDESPTTCRHFIENQGLELFMRVLESFPTESSIQQKVLGLLNNIAEVQELHSELMWKDFIDHISSLLHSVEVEVSYFAAGIIAHLISRGEQAWTLSRSQRNSLLDDLHSAILKWPTPECEMVAYRSFNPFFPLLGCFTTPGVQLWAVWAMQHVCSKNPSRYCSMLIEEGGLQHLYNIKDHEHTDPHVQQIAVAILDSLEKHIVRHGRPPPCKKQPQARLN [ZYG11B] | -0.182 | -0.136 | 2.24 | 0.857 | 52.4 | 52.3
MAMAYLAWRLARRSCPSSLQVTSFPVVQLHMNRTAMRASQKDFENSMNQVKLLKKDPGNEVKLKLYALYKQATEGPCNMPKPGVFDLINKAKWDAWNALGSLPKEAARQNYVDLVSSLSPSLESSSQVEPGTDRKSTGFETLVVTSEDGITKIMFNRPKKKNAINTEMYHEIMRALKAASKDDSIITVLTGNGDYYSSGNDLTNFTDIPPGGVEEKAKNNAVLLREFVGCFIDFPKPLIAVVNGPAVGISVTLLGLFDAVYASDRATFHTPFSHLGQSPEGCSSYTFPKIMSPAKATEMLIFGKKLTAGEACAQGLVTEVFPDSTFQKEVWTRLKAFAKLPPNALRISKEVIRKREREKLHAVNAEECNVLQGRWLSDECTNAVVNFLSRKSKL [ECI2] | -0.0636 | 0.369 | -0.204 | 0.871 | 53.6 | 53.2
